Measurements as given in patent US6861257B1, “Methods for isolation of osteoclast precursor cells and inducing their differentiation into osteoclasts” (Shionogi & Co., Ltd., priority 1998, dated 2005).
“Also recorded” adds a separate entry of the source.

B1: IL-4: recombinant human IL-4 (Genzyme) (protein, UniProt P05112 25-153, looked up)
Interleukin-4: HKCDITLQEIIKTLNSLTEQKTLCTELTVTDIFAASKNTTEKETFCRAATVLRQFYSHHEKDTRCLGATAQQFHRHKQLIRFLKRLDRNLWGLAGLNSCPVKEANQSTLENFLERLKTIMREKYSKCSS
B2: IL-11: recombinant human IL-11 (R & D Systems) (protein, UniProt P20809 22-199, looked up)
Interleukin-11: PGPPPGPPRVSPDPRAELDSTVLLTRSLLADTRQLAAQLRDKFPADGDHNLDSLPTLAMSAGALGALQLPGVLTRLRADLLSYLRHVQWLRRAGGSSLKTLEPELGTLQARLDRLLRRLQLLMSRLALPQPPPDPPAPPLAPPSSAWGGIRAAHAILGGLHLTLDWAVRGLLLLKTRL
B3: eotaxin-3: human CC type chemokine, amino acid sequence SEQ ID No.:2; recombinant protein from baculovirus-infected insect cells (protein, listed as Homo sapiens)
chain: MMGLSLASAVLLASLLSLHLGTATRGSDISKTCCFQYSHKPLPWTWVRSYEFTSNSCSQRAVIFTTKRGKKVCTHPRKKWVQKYISLLKTPKQL
B4: eotaxin-2: recombinant human eotaxin-2 (R & D Systems) (protein, UniProt O00175 27-119, looked up)
C-C motif chemokine 24: VVIPSPCCMFFVSKRIPENRVVSYQLSSRSTCLKAGVIFTTKKGQQFCGDPKQEWVQRYMKNLDAKQKKASPRARAVAVKGPVQRYPGNQTTC
B5: IL-7: recombinant human IL-7 (Genzyme) (protein, UniProt P13232 26-177, looked up)
Interleukin-7: DCDIEGKDGKQYESVLMVSIDQLLDSMKEIGSNCLNNEFNFFKRHICDANKEGMFLFRAARKLRQFLKMNSTGDFDLHLLKVSEGTTILLNCTGQVKGRKPAALGEAQPTKSLEENKSLKEQKKLNDLCFLKRLLQEIKTCWNKILMGTKEH
B6: M-CSF: recombinant human M-CSF (R & D Systems) (protein, UniProt P09603 33-554, looked up)
Macrophage colony-stimulating …: EEVSEYCSHMIGSGHLQSLQRLIDSQMETSCQITFEFVDQEQLKDPVCYLKKAFLLVQDIMEDTMRFRDNTPNAIAIVQLQELSLRLKSCFTKDYEEHDKACVRTFYETPLQLLEKVKNVFNETKNLLDKDWNIFSKNCNNSFAECSSQDVVTKPDCNCLYPKAIPSSDPASVSPHQPLAPSMAPVAGLTWEDSEGTEGSSLLPGEQPLHTVDPGSAKQRPPRSTCQSFEPPETPVVKDSTIGGSPQPRPSVGAFNPGMEDILDSAMGTNWVPEEASGEASEIPVPQGTELSPSRPGGGSMQTEPARPSNFLSASSPLPASAKGQQPADVTGTALPRVGPVRPTGQDWNHTPQKTDHPSALLRDPPEPGSPRISSLRPQGLSNPSTLSAQPQLSRSHSSGSVLPLGELEGRRSTRDRRSPAEPEGGPASEGAARPLPRFNSVPLTDTGHERQSEGSFSPQLQESVFHLLVPSVILVLLAVGGLLFYRWRRRSHQEPQRADSPLEQPEGSPLTQDDRQVELPV

Tests used:
preosteoclasts [1] = assay: Induction of differentiation of preosteoclasts (from joint fluid of rheumatoid arthritis patients) into osteoclasts in the absence of accessory cells; format: cell-based; conditions: cytokine in place of human T-STIM in the medium, 37° C., 48-96 hours, no accessory cells
Description: The obtained cellular fraction was cultured in DMEM medium (Gibco BRL, #12430-21 or equivalent) supplemented with 10% (v/v) of fetal calf serum (FCS) in 5-7% CO2-containing air at 37° C. for several weeks. […]
Human T-STIM contains a variety of cytokines. In order to identify the cytokine which stimulates differentiation of preosteoclasts into osteoclasts, the differentiation was examined by modifycation the contents of Medium A described as previously in Example 1(3).
The following 16 kinds of medium (B-R) were prepared by using the cytokines shown below, alone or a mixture thereof, instead of human T-STIM contained in Medium A (Example 1(3)). […] Recombinant baculovirus containing the sequence was prepared to infect insect cells, then the recombinant eotaxin-3 protein was purified from the culture supernatant.)
The preosteoclasts obtained by Example 1(2) were cultured in the Medium […] described above at 37° C. for 48-96 hours.

preosteoclasts [2] = conditions: differentiation requiring the presence of accessory cells; cited from earlier work

Row | Molecule | ability for inducing the differentiation of preosteoclasts (preosteoclasts [1]) | induction of the differentiation of preosteoclasts into osteoclasts (preosteoclasts [2])
1 | GM-CSF: recombinant human GM-CSF (R & D Systems) | have an ability for inducing the differentiation of preosteoclasts | –
2 | IL-6: recombinant human IL-6 (R & D Systems) | do not have an ability for inducing the differentiation of preosteoclasts; also recorded: does not effect to the differentiation | induce the differentiation of preosteoclasts into osteoclasts
3 | eotaxin: recombinant human eotaxin (R & D Systems) | have an ability for inducing the differentiation of preosteoclasts | –
4 | B1 | do not have an ability for inducing the differentiation of preosteoclasts | –
5 | B2 | do not have an ability for inducing the differentiation of preosteoclasts; also recorded: does not effect to the differentiation | induce the differentiation of preosteoclasts into osteoclasts
6 | B3 | have an ability for inducing the differentiation of preosteoclasts | –
7 | B4 | have an ability for inducing the differentiation of preosteoclasts | –
8 | B5 | have an ability for inducing the differentiation of preosteoclasts | –
9 | B6 | do not have an ability for inducing the differentiation of preosteoclasts; also recorded: does not effect to the differentiation | induce the differentiation of preosteoclasts into osteoclasts
